Measured values as given in the supplement of paper PMC9876800.

System: peptide library, one residue held at a place counted from the S/T acceptor
Assay: relative phosphorylation of the sub-library (ratio to the mean residue at this position); human; higher = residue favoured
Details: M fixed; at -1
Method in brief: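 Human or orthologue kinase constructs, purified and recombinant, were incubated under kinase-specific conditions in 384-well plates with biotinylated degenerate peptide sub-libraries. Each sub-library fixed one residue at one position around a central Ser/Thr. Incubations lasted 90 min with peptides at 50 μM and 50 μM ATP spiked with γ-32P-ATP, after which spots on streptavidin membranes were phosphorimaged and quantified by densitometry. Relative sub-library phosphorylation is a ratio to the mean residue at that position.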

NEK4, construct: Full length, sequence (P51957 whole entry, looked up): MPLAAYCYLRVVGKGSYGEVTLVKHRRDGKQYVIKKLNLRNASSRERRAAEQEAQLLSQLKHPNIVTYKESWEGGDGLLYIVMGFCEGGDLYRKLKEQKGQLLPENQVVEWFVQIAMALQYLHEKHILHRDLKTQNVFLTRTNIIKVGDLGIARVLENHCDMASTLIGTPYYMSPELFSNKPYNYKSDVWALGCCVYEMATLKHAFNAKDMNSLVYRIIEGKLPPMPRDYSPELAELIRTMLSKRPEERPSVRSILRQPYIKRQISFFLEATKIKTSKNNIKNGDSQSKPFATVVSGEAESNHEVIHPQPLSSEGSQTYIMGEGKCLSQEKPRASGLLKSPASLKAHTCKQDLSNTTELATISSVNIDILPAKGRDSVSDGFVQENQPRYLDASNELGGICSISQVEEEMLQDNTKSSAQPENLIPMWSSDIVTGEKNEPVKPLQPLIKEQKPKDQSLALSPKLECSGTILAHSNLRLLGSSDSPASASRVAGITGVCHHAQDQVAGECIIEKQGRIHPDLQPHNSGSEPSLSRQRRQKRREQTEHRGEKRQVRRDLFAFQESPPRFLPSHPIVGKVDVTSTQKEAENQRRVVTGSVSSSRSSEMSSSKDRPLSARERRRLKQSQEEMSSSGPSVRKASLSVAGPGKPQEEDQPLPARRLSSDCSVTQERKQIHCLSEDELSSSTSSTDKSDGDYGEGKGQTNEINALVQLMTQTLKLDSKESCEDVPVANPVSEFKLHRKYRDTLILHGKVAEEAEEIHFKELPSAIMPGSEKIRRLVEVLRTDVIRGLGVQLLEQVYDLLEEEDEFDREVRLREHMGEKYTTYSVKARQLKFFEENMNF
GRK2, construct: Full length, sequence (P25098 whole entry, looked up): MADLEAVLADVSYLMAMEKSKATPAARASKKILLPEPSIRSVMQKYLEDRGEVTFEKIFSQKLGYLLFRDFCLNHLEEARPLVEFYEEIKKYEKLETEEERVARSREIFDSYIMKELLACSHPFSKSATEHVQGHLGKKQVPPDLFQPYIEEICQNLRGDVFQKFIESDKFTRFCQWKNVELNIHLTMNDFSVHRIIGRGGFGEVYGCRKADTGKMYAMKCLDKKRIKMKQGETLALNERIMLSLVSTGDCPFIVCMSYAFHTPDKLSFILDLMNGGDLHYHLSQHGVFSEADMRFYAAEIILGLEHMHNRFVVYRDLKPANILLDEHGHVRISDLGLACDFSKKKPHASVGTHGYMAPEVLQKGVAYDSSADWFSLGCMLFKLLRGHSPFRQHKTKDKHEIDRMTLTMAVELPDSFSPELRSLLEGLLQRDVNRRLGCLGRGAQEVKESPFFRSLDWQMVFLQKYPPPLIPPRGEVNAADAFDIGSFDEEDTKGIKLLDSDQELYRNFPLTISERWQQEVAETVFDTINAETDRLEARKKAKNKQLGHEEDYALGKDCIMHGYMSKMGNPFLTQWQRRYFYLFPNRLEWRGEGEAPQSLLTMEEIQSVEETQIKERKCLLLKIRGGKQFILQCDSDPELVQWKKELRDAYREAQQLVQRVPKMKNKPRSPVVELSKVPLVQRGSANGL
AURKB, construct: Full length, sequence (Q96GD4 whole entry, looked up): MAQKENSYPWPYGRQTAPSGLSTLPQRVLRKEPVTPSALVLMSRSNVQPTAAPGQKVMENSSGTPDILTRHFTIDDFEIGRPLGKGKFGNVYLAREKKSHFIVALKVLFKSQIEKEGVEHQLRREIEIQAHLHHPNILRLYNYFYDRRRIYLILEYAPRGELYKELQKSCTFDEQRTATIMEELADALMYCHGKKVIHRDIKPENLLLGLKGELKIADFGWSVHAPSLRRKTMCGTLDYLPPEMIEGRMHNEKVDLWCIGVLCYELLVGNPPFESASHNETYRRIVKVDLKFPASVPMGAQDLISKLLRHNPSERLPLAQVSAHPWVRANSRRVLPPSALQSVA
TP53RK, construct: Full length, sequence (Q96S44 whole entry, looked up): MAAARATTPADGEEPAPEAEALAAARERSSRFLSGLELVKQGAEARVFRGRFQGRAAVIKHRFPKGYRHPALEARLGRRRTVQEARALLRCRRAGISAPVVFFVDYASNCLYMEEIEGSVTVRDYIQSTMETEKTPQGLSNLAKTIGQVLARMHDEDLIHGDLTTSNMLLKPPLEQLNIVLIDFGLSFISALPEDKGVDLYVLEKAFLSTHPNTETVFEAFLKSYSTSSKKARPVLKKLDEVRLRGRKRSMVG
GRK7, construct: Full length, sequence (Q8WTQ7 whole entry, looked up): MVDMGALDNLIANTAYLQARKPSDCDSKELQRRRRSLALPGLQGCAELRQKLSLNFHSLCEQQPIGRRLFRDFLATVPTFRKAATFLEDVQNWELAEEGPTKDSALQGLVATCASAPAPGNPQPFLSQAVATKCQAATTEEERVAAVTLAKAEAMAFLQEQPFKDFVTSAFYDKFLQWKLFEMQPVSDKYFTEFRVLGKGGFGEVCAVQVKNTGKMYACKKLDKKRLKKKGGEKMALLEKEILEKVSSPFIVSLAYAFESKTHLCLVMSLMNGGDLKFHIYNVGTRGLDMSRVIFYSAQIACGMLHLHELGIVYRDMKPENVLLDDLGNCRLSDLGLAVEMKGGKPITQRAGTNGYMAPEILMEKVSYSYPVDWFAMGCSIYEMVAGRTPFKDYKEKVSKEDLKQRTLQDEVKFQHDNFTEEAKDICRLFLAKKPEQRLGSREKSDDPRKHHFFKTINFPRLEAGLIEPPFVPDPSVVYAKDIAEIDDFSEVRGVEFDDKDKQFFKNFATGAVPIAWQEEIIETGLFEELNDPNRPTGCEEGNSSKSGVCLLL
SGK3, construct: aa119-end, sequence (Q96BR1 119-496, looked up): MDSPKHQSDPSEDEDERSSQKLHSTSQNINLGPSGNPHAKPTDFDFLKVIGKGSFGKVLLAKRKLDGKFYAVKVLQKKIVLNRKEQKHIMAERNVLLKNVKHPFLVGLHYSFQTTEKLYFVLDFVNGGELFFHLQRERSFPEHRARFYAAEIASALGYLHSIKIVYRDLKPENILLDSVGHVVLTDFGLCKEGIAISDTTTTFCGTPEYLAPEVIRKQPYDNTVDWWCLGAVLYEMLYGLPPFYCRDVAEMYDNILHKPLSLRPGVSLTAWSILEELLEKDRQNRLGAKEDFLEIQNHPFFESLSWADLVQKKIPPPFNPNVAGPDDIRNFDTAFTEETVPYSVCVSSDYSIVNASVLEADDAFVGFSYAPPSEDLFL
NEK11, construct: Full length, sequence (Q8NG66 whole entry, looked up): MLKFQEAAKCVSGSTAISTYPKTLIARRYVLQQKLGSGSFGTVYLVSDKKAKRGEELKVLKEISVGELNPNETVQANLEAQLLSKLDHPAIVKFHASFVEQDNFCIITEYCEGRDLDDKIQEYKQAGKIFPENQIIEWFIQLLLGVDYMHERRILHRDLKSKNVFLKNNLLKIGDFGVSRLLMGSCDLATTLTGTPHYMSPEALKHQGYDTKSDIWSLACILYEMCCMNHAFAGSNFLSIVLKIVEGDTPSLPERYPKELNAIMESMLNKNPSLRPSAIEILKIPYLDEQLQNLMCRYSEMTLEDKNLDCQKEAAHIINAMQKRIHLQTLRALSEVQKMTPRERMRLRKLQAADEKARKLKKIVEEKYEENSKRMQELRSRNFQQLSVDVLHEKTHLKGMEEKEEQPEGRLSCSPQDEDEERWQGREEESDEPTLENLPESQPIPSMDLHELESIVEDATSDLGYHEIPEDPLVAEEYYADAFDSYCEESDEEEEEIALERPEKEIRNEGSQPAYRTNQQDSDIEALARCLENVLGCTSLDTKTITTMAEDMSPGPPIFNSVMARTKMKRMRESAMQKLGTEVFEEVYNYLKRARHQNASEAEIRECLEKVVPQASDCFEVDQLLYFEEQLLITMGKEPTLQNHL

Substance | relative phosphorylation
NEK4, construct: Full length (from UniProt P51957) | 1.36
AURKB, construct: Full length (from UniProt Q96GD4) | 0.97
SGK3, construct: aa119-end (from UniProt Q96BR1) | 1.02
GRK7, construct: Full length (from UniProt Q8WTQ7) | 0.53

Same assay, conditions: M fixed; at -2

Substance | relative phosphorylation
NEK11, construct: Full length (from UniProt Q8NG66) | 1.06
MKNK1, construct: Full length (D165-205) (from UniProt Q9BUB5) | 0.395
TP53RK, construct: Full length (from UniProt Q96S44) | 1.02
GRK2, construct: Full length (from UniProt P25098) | 0.872
NEK4, construct: Full length (from UniProt P51957) | 1.47
AURKB, construct: Full length (from UniProt Q96GD4) | 0.243
SGK3, construct: aa119-end (from UniProt Q96BR1) | 0.394
GRK7, construct: Full length (from UniProt Q8WTQ7) | 0.572

Same assay, conditions: M fixed; at -3

Substance | relative phosphorylation
NEK11, construct: Full length (from UniProt Q8NG66) | 1.4
MKNK1, construct: Full length (D165-205) (from UniProt Q9BUB5) | 0.494
TP53RK, construct: Full length (from UniProt Q96S44) | 1.03
GRK2, construct: Full length (from UniProt P25098) | 0.8
NEK4, construct: Full length (from UniProt P51957) | 1.72
AURKB, construct: Full length (from UniProt Q96GD4) | 0.661
SGK3, construct: aa119-end (from UniProt Q96BR1) | 0.349
GRK7, construct: Full length (from UniProt Q8WTQ7) | 0.493

Same assay, conditions: M fixed; at -4

Substance | relative phosphorylation
NEK11, construct: Full length (from UniProt Q8NG66) | 1.07
MKNK1, construct: Full length (D165-205) (from UniProt Q9BUB5) | 0.784
TP53RK, construct: Full length (from UniProt Q96S44) | 0.949
GRK2, construct: Full length (from UniProt P25098) | 0.951
NEK4, construct: Full length (from UniProt P51957) | 0.969
AURKB, construct: Full length (from UniProt Q96GD4) | 0.829
SGK3, construct: aa119-end (from UniProt Q96BR1) | 0.875
GRK7, construct: Full length (from UniProt Q8WTQ7) | 0.58

Same assay, conditions: M fixed; at -5

Substance | relative phosphorylation
NEK11, construct: Full length (from UniProt Q8NG66) | 1.13
MKNK1, construct: Full length (D165-205) (from UniProt Q9BUB5) | 0.97
TP53RK, construct: Full length (from UniProt Q96S44) | 0.946
GRK2, construct: Full length (from UniProt P25098) | 0.931
NEK4, construct: Full length (from UniProt P51957) | 0.966
AURKB, construct: Full length (from UniProt Q96GD4) | 0.786
SGK3, construct: aa119-end (from UniProt Q96BR1) | 0.708
GRK7, construct: Full length (from UniProt Q8WTQ7) | 0.678

Same assay, conditions: N fixed; at +1

Substance | relative phosphorylation
NEK11, construct: Full length (from UniProt Q8NG66) | 0.573
MKNK1, construct: Full length (D165-205) (from UniProt Q9BUB5) | 0.651
TP53RK, construct: Full length (from UniProt Q96S44) | 1.01
GRK2, construct: Full length (from UniProt P25098) | 0.879
NEK4, construct: Full length (from UniProt P51957) | 0.592
AURKB, construct: Full length (from UniProt Q96GD4) | 1.33
SGK3, construct: aa119-end (from UniProt Q96BR1) | 0.635
GRK7, construct: Full length (from UniProt Q8WTQ7) | 0.704

Same assay, conditions: N fixed; at +2

Substance | relative phosphorylation
NEK11, construct: Full length (from UniProt Q8NG66) | 1.06
MKNK1, construct: Full length (D165-205) (from UniProt Q9BUB5) | 0.817
TP53RK, construct: Full length (from UniProt Q96S44) | 0.998
GRK2, construct: Full length (from UniProt P25098) | 0.969
NEK4, construct: Full length (from UniProt P51957) | 0.86
AURKB, construct: Full length (from UniProt Q96GD4) | 1.04
SGK3, construct: aa119-end (from UniProt Q96BR1) | 1.02
GRK7, construct: Full length (from UniProt Q8WTQ7) | 1.15

Same assay, conditions: N fixed; at +3

Substance | relative phosphorylation
NEK11, construct: Full length (from UniProt Q8NG66) | 1.05
MKNK1, construct: Full length (D165-205) (from UniProt Q9BUB5) | 0.725
TP53RK, construct: Full length (from UniProt Q96S44) | 0.947
GRK2, construct: Full length (from UniProt P25098) | 0.996
NEK4, construct: Full length (from UniProt P51957) | 0.652
AURKB, construct: Full length (from UniProt Q96GD4) | 0.981
SGK3, construct: aa119-end (from UniProt Q96BR1) | 0.927
GRK7, construct: Full length (from UniProt Q8WTQ7) | 0.604

Same assay, conditions: N fixed; at +4

Substance | relative phosphorylation
NEK11, construct: Full length (from UniProt Q8NG66) | 1.11
MKNK1, construct: Full length (D165-205) (from UniProt Q9BUB5) | 1.12
TP53RK, construct: Full length (from UniProt Q96S44) | 0.955
GRK2, construct: Full length (from UniProt P25098) | 1.07
NEK4, construct: Full length (from UniProt P51957) | 0.92
AURKB, construct: Full length (from UniProt Q96GD4) | 1.08
SGK3, construct: aa119-end (from UniProt Q96BR1) | 0.904
GRK7, construct: Full length (from UniProt Q8WTQ7) | 0.726

Same assay, conditions: N fixed; at -1

Substance | relative phosphorylation
NEK11, construct: Full length (from UniProt Q8NG66) | 1.23
MKNK1, construct: Full length (D165-205) (from UniProt Q9BUB5) | 0.905
TP53RK, construct: Full length (from UniProt Q96S44) | 0.933
GRK2, construct: Full length (from UniProt P25098) | 1.04
NEK4, construct: Full length (from UniProt P51957) | 0.935
AURKB, construct: Full length (from UniProt Q96GD4) | 0.788
SGK3, construct: aa119-end (from UniProt Q96BR1) | 1.08
GRK7, construct: Full length (from UniProt Q8WTQ7) | 1.66

Same assay, conditions: N fixed; at -2

Substance | relative phosphorylation
NEK11, construct: Full length (from UniProt Q8NG66) | 1.42
MKNK1, construct: Full length (D165-205) (from UniProt Q9BUB5) | 1.03
TP53RK, construct: Full length (from UniProt Q96S44) | 0.927
GRK2, construct: Full length (from UniProt P25098) | 0.926
NEK4, construct: Full length (from UniProt P51957) | 1.43
AURKB, construct: Full length (from UniProt Q96GD4) | 0.377
SGK3, construct: aa119-end (from UniProt Q96BR1) | 0.7
GRK7, construct: Full length (from UniProt Q8WTQ7) | 0.956

Same assay, conditions: N fixed; at -3

Substance | relative phosphorylation
NEK11, construct: Full length (from UniProt Q8NG66) | 1.18
